Ends that are not written are not given here. * marks the point of attachment. C16 diacid = O=C(O)CCCCCCCCCCCCCCC(=O)*
What was measured:
human GIP receptor [1] = target: T1, human GIP receptor (human, UniProt P48546 22-466); experiment: 125I-hGIP competition binding, COS-7/hGIPR, 0.1% casein;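 note: nonspecific binding defined as radioligand binding measured on untransfected cells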
T1 construct: whole, on cells; also called hGIPR
T1 sequence (looked up): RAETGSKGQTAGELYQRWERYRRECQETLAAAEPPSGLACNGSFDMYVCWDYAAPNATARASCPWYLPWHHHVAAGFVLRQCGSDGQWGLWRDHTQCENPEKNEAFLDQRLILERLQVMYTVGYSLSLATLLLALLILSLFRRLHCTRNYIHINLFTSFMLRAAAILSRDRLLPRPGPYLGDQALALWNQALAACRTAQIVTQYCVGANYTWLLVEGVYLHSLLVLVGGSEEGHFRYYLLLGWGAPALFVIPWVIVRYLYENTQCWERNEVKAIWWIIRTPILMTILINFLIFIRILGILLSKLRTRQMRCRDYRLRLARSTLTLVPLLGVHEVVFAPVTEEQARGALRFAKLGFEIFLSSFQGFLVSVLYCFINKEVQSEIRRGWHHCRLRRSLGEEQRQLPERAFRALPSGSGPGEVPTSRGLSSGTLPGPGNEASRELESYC
Method: (§1) After incubation, the cells were washed twice in ice-cold binding buffer (+/−2% HSA) and lysed using 200 mM NaOH with 1% SDS for 30 min. Nonspecific binding was determined as the binding of radioactive ligand to untransfected cells.

human GIP receptor [2] = target: T1, human GIP receptor; experiment: 125I-hGIP competition binding, COS-7 cells expressing hGIPR;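 note: nonspecific binding taken as radioligand bound by untransfected cells, binding buffer with or without 2% HSA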
Method: as §1

human GIP receptor [3] = target: T1, human GIP receptor; experiment: IC50 with 2% HSA over IC50 with 0.1% casein, 125I-hGIP competition, COS-7/hGIPR
Method: as §1

human GIP receptor [4] = target: T1, human GIP receptor; experiment: cell-based or functional assay
human GIP receptor [5] = target: T1, human GIP receptor; experiment: 125I-hGIP competition binding, COS-7/hGIPR, 2% HSA;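 note: nonspecific binding defined as radioligand binding to untransfected cells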
Method: as §1

B1: AT173 [hGIP(5-30)NH2[S11K]-C16diacid/11] (peptide)
peptide: TFISDYK(C16 diacid)IAMDKIHQQDFVNWLLAQK-NH2
modifications: N-terminus assumed
SMILES: CC[C@H](C)[C@H](NC(=O)[C@H](CCCCNC(=O)CCCCCCCCCCCCCCC(=O)O)NC(=O)[C@H](Cc1ccc(O)cc1)NC(=O)[C@H](CC(=O)O)NC(=O)[C@H](CO)NC(=O)[C@@H](NC(=O)[C@H](Cc1ccccc1)NC(=O)[C@@H](N)[C@@H](C)O)[C@@H](C)CC)C(=O)N[C@@H](C)C(=O)N[C@@H](CCSC)C(=O)N[C@@H](CC(=O)O)C(=O)N[C@@H](CCCCN)C(=O)N[C@H](C(=O)N[C@@H](Cc1c[nH]cn1)C(=O)N[C@@H](CCC(N)=O)C(=O)N[C@@H](CCC(N)=O)C(=O)N[C@@H](CC(=O)O)C(=O)N[C@@H](Cc1ccccc1)C(=O)N[C@H](C(=O)N[C@@H](CC(N)=O)C(=O)N[C@@H](Cc1c[nH]c2ccccc12)C(=O)N[C@@H](CC(C)C)C(=O)N[C@@H](CC(C)C)C(=O)N[C@@H](C)C(=O)N[C@@H](CCC(N)=O)C(=O)N[C@@H](CCCCN)C(N)=O)C(C)C)[C@@H](C)CC
B1 gave an IC50 (human GIP receptor [1]) of 8.1 nM, a logIC50 (human GIP receptor [1]) of -8.1 log M and an IC50 (human GIP receptor [2]) of 8 nM. For the same binder, the “log IC50” value (human GIP receptor [2]) was -8.1 log M, the “Fold change HSA (2%)/Casein (0.1%)” value (human GIP receptor [3]) was 7.4 fold and the “cAMP agonism, Emax” value (human GIP receptor [4]) was 0. The “cAMP antagonism” value (human GIP receptor [4]) was 10 nM, the “cAMP antagonism, log” value (human GIP receptor [4]) was -8 log M and the IC50 (human GIP receptor [5]) was 60.3 nM. For the same binder, the logIC50 (human GIP receptor [5]) was -7.2 log M.

B2: AT175 [hGIP(5-30)NH2[A13K]-C16diacid/13] (peptide)
peptide: TFISDYSIK(C16 diacid)MDKIHQQDFVNWLLAQK-NH2
modifications: N-terminus assumed
SMILES: CC[C@H](C)[C@H](NC(=O)[C@H](CCCCN)NC(=O)[C@H](CC(=O)O)NC(=O)[C@H](CCSC)NC(=O)[C@H](CCCCNC(=O)CCCCCCCCCCCCCCC(=O)O)NC(=O)[C@@H](NC(=O)[C@H](CO)NC(=O)[C@H](Cc1ccc(O)cc1)NC(=O)[C@H](CC(=O)O)NC(=O)[C@H](CO)NC(=O)[C@@H](NC(=O)[C@H](Cc1ccccc1)NC(=O)[C@@H](N)[C@@H](C)O)[C@@H](C)CC)[C@@H](C)CC)C(=O)N[C@@H](Cc1c[nH]cn1)C(=O)N[C@@H](CCC(N)=O)C(=O)N[C@@H](CCC(N)=O)C(=O)N[C@@H](CC(=O)O)C(=O)N[C@@H](Cc1ccccc1)C(=O)N[C@H](C(=O)N[C@@H](CC(N)=O)C(=O)N[C@@H](Cc1c[nH]c2ccccc12)C(=O)N[C@@H](CC(C)C)C(=O)N[C@@H](CC(C)C)C(=O)N[C@@H](C)C(=O)N[C@@H](CCC(N)=O)C(=O)N[C@@H](CCCCN)C(N)=O)C(C)C
B2 was tested, and the IC50 (human GIP receptor [1]) was 72.4 nM, the logIC50 (human GIP receptor [1]) was -7.1 log M and the IC50 (human GIP receptor [2]) was 73 nM. The “log IC50” value (human GIP receptor [2]) was -7.1 log M, the “Fold change HSA (2%)/Casein (0.1%)” value (human GIP receptor [3]) was 7.8 fold and the “cAMP agonism, Emax” value (human GIP receptor [4]) was 0. For the same binder, the “cAMP antagonism” value (human GIP receptor [4]) was 17 nM, the “cAMP antagonism, log” value (human GIP receptor [4]) was -7.8 log M and the IC50 (human GIP receptor [5]) was 562 nM. For the same binder, the logIC50 (human GIP receptor [5]) was -6.3 log M.

B3: AT174 [hGIP(5-30)NH2[I12K]-C16diacid/12] (peptide)
peptide: TFISDYSK(C16 diacid)AMDKIHQQDFVNWLLAQK-NH2
modifications: N-terminus assumed
SMILES: CC[C@H](C)[C@H](NC(=O)[C@H](CCCCN)NC(=O)[C@H](CC(=O)O)NC(=O)[C@H](CCSC)NC(=O)[C@H](C)NC(=O)[C@H](CCCCNC(=O)CCCCCCCCCCCCCCC(=O)O)NC(=O)[C@H](CO)NC(=O)[C@H](Cc1ccc(O)cc1)NC(=O)[C@H](CC(=O)O)NC(=O)[C@H](CO)NC(=O)[C@@H](NC(=O)[C@H](Cc1ccccc1)NC(=O)[C@@H](N)[C@@H](C)O)[C@@H](C)CC)C(=O)N[C@@H](Cc1c[nH]cn1)C(=O)N[C@@H](CCC(N)=O)C(=O)N[C@@H](CCC(N)=O)C(=O)N[C@@H](CC(=O)O)C(=O)N[C@@H](Cc1ccccc1)C(=O)N[C@H](C(=O)N[C@@H](CC(N)=O)C(=O)N[C@@H](Cc1c[nH]c2ccccc12)C(=O)N[C@@H](CC(C)C)C(=O)N[C@@H](CC(C)C)C(=O)N[C@@H](C)C(=O)N[C@@H](CCC(N)=O)C(=O)N[C@@H](CCCCN)C(N)=O)C(C)C
B3 was tested, and the IC50 (human GIP receptor [1]) was 79.4 nM, the logIC50 (human GIP receptor [1]) was -7.1 log M and the IC50 (human GIP receptor [2]) was 80 nM. For the same binder, the “log IC50” value (human GIP receptor [2]) was -7.1 log M, the “Fold change HSA (2%)/Casein (0.1%)” value (human GIP receptor [3]) was 3.5 fold and the “cAMP agonism, Emax” value (human GIP receptor [4]) was 0. The “cAMP antagonism” value (human GIP receptor [4]) was 23 nM, the “cAMP antagonism, log” value (human GIP receptor [4]) was -7.6 log M and the IC50 (human GIP receptor [5]) was 282 nM. For the same binder, the logIC50 (human GIP receptor [5]) was -6.6 log M.

B4: AT177 [hGIP(5-30)NH2[D15K]-C16diacid/15] (peptide)
peptide: TFISDYSIAMK(C16 diacid)KIHQQDFVNWLLAQK-NH2
modifications: N-terminus assumed
SMILES: CC[C@H](C)[C@H](NC(=O)[C@H](CO)NC(=O)[C@H](Cc1ccc(O)cc1)NC(=O)[C@H](CC(=O)O)NC(=O)[C@H](CO)NC(=O)[C@@H](NC(=O)[C@H](Cc1ccccc1)NC(=O)[C@@H](N)[C@@H](C)O)[C@@H](C)CC)C(=O)N[C@@H](C)C(=O)N[C@@H](CCSC)C(=O)N[C@@H](CCCCNC(=O)CCCCCCCCCCCCCCC(=O)O)C(=O)N[C@@H](CCCCN)C(=O)N[C@H](C(=O)N[C@@H](Cc1c[nH]cn1)C(=O)N[C@@H](CCC(N)=O)C(=O)N[C@@H](CCC(N)=O)C(=O)N[C@@H](CC(=O)O)C(=O)N[C@@H](Cc1ccccc1)C(=O)N[C@H](C(=O)N[C@@H](CC(N)=O)C(=O)N[C@@H](Cc1c[nH]c2ccccc12)C(=O)N[C@@H](CC(C)C)C(=O)N[C@@H](CC(C)C)C(=O)N[C@@H](C)C(=O)N[C@@H](CCC(N)=O)C(=O)N[C@@H](CCCCN)C(N)=O)C(C)C)[C@@H](C)CC
B4 showed an IC50 (human GIP receptor [1]) of 135 nM, a logIC50 (human GIP receptor [1]) of -6.87 log M and an IC50 (human GIP receptor [2]) of 134 nM. For the same binder, the “log IC50” value (human GIP receptor [2]) was -6.9 log M, the “Fold change HSA (2%)/Casein (0.1%)” value (human GIP receptor [3]) was 3.8 fold and the “cAMP agonism” value (human GIP receptor [4]) was 59 nM. For the same binder, the “cAMP agonism, EC50 (log)” value (human GIP receptor [4]) was -7 log M, the “cAMP agonism, Emax” value (human GIP receptor [4]) was 30 and the “cAMP antagonism” value (human GIP receptor [4]) was 59 nM. The “cAMP antagonism, log” value (human GIP receptor [4]) was -7.2 log M, the IC50 (human GIP receptor [5]) was 513 nM and the logIC50 (human GIP receptor [5]) was -6.29 log M.

B5: AT176 [hGIP(5-30)NH2[M14K]-C16diacid/14] (peptide)
peptide: TFISDYSIAK(C16 diacid)DKIHQQDFVNWLLAQK-NH2
modifications: N-terminus assumed
SMILES: CC[C@H](C)[C@H](NC(=O)[C@H](CO)NC(=O)[C@H](Cc1ccc(O)cc1)NC(=O)[C@H](CC(=O)O)NC(=O)[C@H](CO)NC(=O)[C@@H](NC(=O)[C@H](Cc1ccccc1)NC(=O)[C@@H](N)[C@@H](C)O)[C@@H](C)CC)C(=O)N[C@@H](C)C(=O)N[C@@H](CCCCNC(=O)CCCCCCCCCCCCCCC(=O)O)C(=O)N[C@@H](CC(=O)O)C(=O)N[C@@H](CCCCN)C(=O)N[C@H](C(=O)N[C@@H](Cc1c[nH]cn1)C(=O)N[C@@H](CCC(N)=O)C(=O)N[C@@H](CCC(N)=O)C(=O)N[C@@H](CC(=O)O)C(=O)N[C@@H](Cc1ccccc1)C(=O)N[C@H](C(=O)N[C@@H](CC(N)=O)C(=O)N[C@@H](Cc1c[nH]c2ccccc12)C(=O)N[C@@H](CC(C)C)C(=O)N[C@@H](CC(C)C)C(=O)N[C@@H](C)C(=O)N[C@@H](CCC(N)=O)C(=O)N[C@@H](CCCCN)C(N)=O)C(C)C)[C@@H](C)CC
B5 was tested, and the IC50 (human GIP receptor [1]) was 115 nM, the logIC50 (human GIP receptor [1]) was -6.9 log M and the IC50 (human GIP receptor [2]) was 114 nM. The “log IC50” value (human GIP receptor [2]) was -6.9 log M, the “Fold change HSA (2%)/Casein (0.1%)” value (human GIP receptor [3]) was 4.9 fold and the “cAMP agonism” value (human GIP receptor [4]) was 121 nM. The “cAMP agonism, EC50 (log)” value (human GIP receptor [4]) was -7 log M, the “cAMP agonism, Emax” value (human GIP receptor [4]) was 12 and the “cAMP antagonism” value (human GIP receptor [4]) was 121 nM. The “cAMP antagonism, log” value (human GIP receptor [4]) was -6.9 log M, the IC50 (human GIP receptor [5]) was 562 nM and the logIC50 (human GIP receptor [5]) was -6.3 log M.

— patent US20200087373A1 (UNIVERSITY OF COPENHAGEN, published 2020)
